Laboratory results as given in PMC10801562 (Antibodies, 2024).
Where a chain is given by its changes, count along the chain named.

T1: recombinant human CD3ε-CD3δ heterodimeric protein (CD3εδ) (Homo sapiens)
T1 construct: human CD3ε of the recombinant CD3εδ heterodimer; human CD3δ of the recombinant CD3εδ heterodimer; source: in-house prepared
T1 chain 1: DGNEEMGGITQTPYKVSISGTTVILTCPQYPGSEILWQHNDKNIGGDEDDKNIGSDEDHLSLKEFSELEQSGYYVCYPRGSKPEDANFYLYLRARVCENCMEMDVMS
T1 chain 2: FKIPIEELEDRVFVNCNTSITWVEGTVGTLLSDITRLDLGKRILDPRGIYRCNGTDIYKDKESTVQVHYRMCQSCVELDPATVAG

B1: mOKT3 mIgG1 V1+C19, homodimeric antibody with FAST-Ig V1+C19 mutations (antibody, V domains shown)
VH: not shown
VL: QIVLTQSPAIMSASPGEKVTMTCSASSSVSYMNWYQKKSGTSPKRWIYDTSKLASGVPAHFRGSGSGTSYSLTISGMEAEDAATYYCQQWSSNPFTFGSGTKLEIN
notes: VH of mOKT3; mouse IgG1 (mIgG1) heavy chain constant region; numbers count on: Eu numbering; VL of mOKT3; mouse kappa light chain constant region (CL); numbers count on: Kabat numbering; Whole IgG of one HC and one LC; also called anti-CD3; H2L2H2L2; source: Expi293F, transiently expressed, purified (Ab-Capcher MAG2 or MonoSpin ProG); copies: 2 + 2
B2: mHIT3a mIgG2a V1+C19, homodimeric antibody with FAST-Ig V1+C19 mutations (antibody, V domains shown)
VH: QVQLQESGAELARPGASVKMSCKASGYTFTRYTMHWVKERPGQGLEWIGYINPSRGYTNYNQKFKDKATLTTDKSSSTAYMELTRLTSEDSAVYYCARYYDDHYCLDYWGQGTTVTVSS
VL: B1 VL with Q1D, V3E, H60R, R62S, I105L, N106K
notes: VH of mHIT3a; mouse IgG2a (mIgG2a) heavy chain constant region; numbers count on: Eu numbering; VL of mHIT3a; mouse kappa light chain constant region (CL); numbers count on: Kabat numbering; Whole IgG of one HC and one LC; also called anti-CD3; H2L2H2L2; source: Expi293F, transiently expressed, purified (Ab-Capcher MAG2, MonoSpin ProA or MonoSpin ProG); copies: 2 + 2
B3: mHIT3a mIgG1 V1+C19, homodimeric antibody with FAST-Ig V1+C19 mutations (antibody, V domains shown)
VH: B2 VH
VL: B1 VL with Q1D, V3E, H60R, R62S, I105L, N106K
notes: VH of mHIT3a; mouse IgG1 (mIgG1) heavy chain constant region; numbers count on: Eu numbering; VL of mHIT3a; mouse kappa light chain constant region (CL); numbers count on: Kabat numbering; Whole IgG of one HC and one LC; also called anti-CD3; H2L2H2L2; source: Expi293F, transiently expressed, purified (Ab-Capcher MAG2 or MonoSpin ProG); copies: 2 + 2
B4: mHIT3a mIgG1, homodimeric antibody without FAST-Ig mutations (antibody, V domains shown)
VH: B2 VH with E39Q
VL: B1 VL with Q1D, V3E, K37Q, H60R, R62S, I105L, N106K
notes: VH of the original mouse antibody mHIT3a; mouse IgG1 (mIgG1) heavy chain constant region; numbers count on: Eu numbering; VL of the original mouse antibody mHIT3a; mouse kappa light chain constant region (CL); Whole IgG of one HC and one LC; also called anti-CD3; H2L2H2L2; source: Expi293F, transiently expressed, purified (Ab-Capcher MAG2 or MonoSpin ProG); copies: 2 + 2
B5: mOKT3 mIgG2a V1+C19, homodimeric antibody with FAST-Ig V1+C19 mutations (antibody, V domains shown)
VH: not shown
VL: B1 VL
notes: VH of mOKT3; mouse IgG2a (mIgG2a) heavy chain constant region; numbers count on: Eu numbering; VL of mOKT3; mouse kappa light chain constant region (CL); numbers count on: Kabat numbering; Whole IgG of one HC and one LC; also called anti-CD3; H2L2H2L2; source: Expi293F, transiently expressed, purified (Ab-Capcher MAG2, MonoSpin ProA or MonoSpin ProG); copies: 2 + 2
B6: mHIT3a mIgG2a, homodimeric antibody without FAST-Ig mutations (antibody, V domains shown)
VH: B2 VH with E39Q
VL: B1 VL with Q1D, V3E, K37Q, H60R, R62S, I105L, N106K
notes: VH of the original mouse antibody mHIT3a; mouse IgG2a (mIgG2a) heavy chain constant region; numbers count on: Eu numbering; VL of the original mouse antibody mHIT3a; mouse kappa light chain constant region (CL); Whole IgG of one HC and one LC; also called anti-CD3; H2L2H2L2; source: Expi293F, transiently expressed, purified (Ab-Capcher MAG2, MonoSpin ProA or MonoSpin ProG); copies: 2 + 2
B7: m12F6 mIgG1 V1+C19, homodimeric antibody with FAST-Ig V1+C19 mutations (antibody, V domains shown)
VH: QVQLQQSGAELARPGASVKMSCKASGYTFTSYTMHWVKERPGQGLEWIGYINPSSGYTKYNQKFKDKATLTADKSSSTAYMQLSSLTSEDSAVYYCARWQDYDVYFDYWGQGTTLTVSS
VL: QIVLSQSPAILSASPGEKVTMTCRASSSVSYMHWYQKKPGSSPKPWIYATSNLASGVPARFSGSGSGTSYSLTISRVEAEDAATYYCQQWSSNPPTFGGGTKLETK
notes: VH of m12F6; mouse IgG1 (mIgG1) heavy chain constant region; numbers count on: Eu numbering; VL of m12F6; mouse kappa light chain constant region (CL); numbers count on: Kabat numbering; Whole IgG of one HC and one LC; also called anti-CD3; H2L2H2L2; source: Expi293F, transiently expressed, purified (Ab-Capcher MAG2 or MonoSpin ProG); copies: 2 + 2
B8: m12F6 mIgG2a, homodimeric antibody without FAST-Ig mutations (antibody, V domains shown)
VH: B7 VH with E39Q
VL: B7 VL with K37Q
notes: VH of the original mouse antibody m12F6; mouse IgG2a (mIgG2a) heavy chain constant region; numbers count on: Eu numbering; VL of the original mouse antibody m12F6; mouse kappa light chain constant region (CL); Whole IgG of one HC and one LC; also called anti-CD3; H2L2H2L2; source: Expi293F, transiently expressed, purified (Ab-Capcher MAG2, MonoSpin ProA or MonoSpin ProG); copies: 2 + 2
B9: m12F6 mIgG1, homodimeric antibody without FAST-Ig mutations (antibody, V domains shown)
VH: B7 VH with E39Q
VL: B7 VL with K37Q
notes: VH of the original mouse antibody m12F6; mouse IgG1 (mIgG1) heavy chain constant region; numbers count on: Eu numbering; VL of the original mouse antibody m12F6; mouse kappa light chain constant region (CL); Whole IgG of one HC and one LC; also called anti-CD3; H2L2H2L2; source: Expi293F, transiently expressed, purified (Ab-Capcher MAG2 or MonoSpin ProG); copies: 2 + 2
B10: m12F6 mIgG2a V1+C19, homodimeric antibody with FAST-Ig V1+C19 mutations (antibody, V domains shown)
VH: B7 VH
VL: B7 VL
notes: VH of m12F6; mouse IgG2a (mIgG2a) heavy chain constant region; numbers count on: Eu numbering; VL of m12F6; mouse kappa light chain constant region (CL); numbers count on: Kabat numbering; Whole IgG of one HC and one LC; also called anti-CD3; H2L2H2L2; source: Expi293F, transiently expressed, purified (Ab-Capcher MAG2, MonoSpin ProA or MonoSpin ProG); copies: 2 + 2
B11: m2C4 mIgG2a, homodimeric antibody without FAST-Ig mutations (antibody, V domains shown)
VH: EVQLQQSGPELVKPGTSVKISCKASGFTFTDYTMDWVKQSHGKSLEWIGDVNPNSGGSIYNQRFKGKASLTVDRSSRIVYMELRSLTFEDTAVYYCARNLGPSFYFDYWGQGTTLTVSS
VL: DTVMTQSHKIMSTSVGDRVSITCKASQDVSIGVAWYQQRPGQSPKLLIYSASYRYTGVPDRFTGSGSGTDFTFTISSVQAEDLAVYYCQQYYIYPYTFGGGTKLEIK
notes: VH of the original mouse antibody m2C4; mouse IgG2a (mIgG2a) heavy chain constant region; numbers count on: Eu numbering; VL of the original mouse antibody m2C4; mouse kappa light chain constant region (CL); Whole IgG of one HC and one LC; also called anti-HER2; H1L1H1L1; source: Expi293F, transiently expressed, purified (Ab-Capcher MAG2, MonoSpin ProA or MonoSpin ProG); copies: 2 + 2

Molecular target: T1, recombinant human CD3ε-CD3δ …
Assay: SPR; Biacore T200, 37 °C, pH 7.4, PB-P+; antibody captured (630 RU) by anti-mouse IgG (Fc) antibody on a CM4 chip; human CD3εδ as analyte, 18.8-19,200 nmol/L (mHIT3a, mOKT3) or 75-76,800 nmol/L (m12F6); steady state model
Conditions: both partners purified

| Kd [µM] | Binder |
| --- | --- |
| 4.48 | B1 |
| 10.4 | B2 |
| 8.32 | B3 |
| 7.54 | B4 |
| 7.68 | B5 |
| 10.4 | B6 |
| 16.1 | B7 |
| 16.7 | B8 |
| 16.8 | B9 |
| 16.4 | B10 |

Molecular target: T2, recombinant human HER2 (Sino Biological, 10004-H08H) (Homo sapiens, UniProt P04626)
T2 construct: human epidermal growth factor receptor 2 (HER2), recombinant; also called human epidermal growth factor receptor 2; source: bought: Sino Biological
Assay: SPR; Biacore T200, 37 °C, pH 7.4, PB-P+ (0.05 mol/L Na-phosphate, 0.15 mol/L NaCl, 0.05% P-20); antibody captured (200 RU) by anti-mouse IgG (Fc) antibody on a CM4 chip; human HER2 as analyte, 6.3-100 nmol/L; 1:1 binding model
Conditions: both partners purified

| Kd [µM] | Binder |
| --- | --- |
| 0.00108 | B11 |
